Like-named read-outs stand apart in the source and are kept apart here. One block for each substance: values may come before it.
What was measured:
[1] = target: FERM domain of human moesin (residues 1–346) (human) (UniProt P26038); test: other fluorescence titration
[2] = target: TMR-CLS: TMR-labeled CLS_S329C (transmembrane and cytoplasmic domains of human L-selectin), in liposomes (human); test: other fluorescence titration
[3] = target: TMR-CLS: TMR-labeled CLS_S329C (transmembrane and cytoplasmic domains of human L-selectin), in liposomes (human); test: other fluorescence titration; remark: listed apart in the source
[4] = target: TMR-CLS: TMR-labeled CLS_S329C (transmembrane and cytoplasmic domains of human L-selectin), in liposomes (human); test: other fluorescence titration; remark: listed apart in the source
[5] = target: TMR-CLS: TMR-labeled CLS_S329C (transmembrane and cytoplasmic domains of human L-selectin), in liposomes (human); test: other fluorescence titration; remark: listed apart in the source
[6] = target: TMR-CLS: TMR-labeled CLS_S329C (transmembrane and cytoplasmic domains of human L-selectin), in liposomes (human); test: other fluorescence titration; remark: listed apart in the source
[7] = target: TMR-ARR18, ARR18 with the N-terminal residue changed to cysteine and labelled with tetramethylrhodamine-5-maleimide (human); test: other fluorescence titration
[8] = target: TMR-CLS: TMR-labeled CLS_S329C (transmembrane and cytoplasmic domains of human L-selectin), in liposomes (human); test: other fluorescence titration; remark: listed apart in the source
[9] = target: moesin-FERM/TMR-CLS complex in 15% POPS/85% POPC liposome (human) (UniProt P26038); test: other fluorescence titration
[10] = target: L-selectin cytoplasmic peptide cytoplasmic domain (Homo sapiens) (UniProt P14151); conditions: cited from earlier work

Sequence of FERM domain of human moesin (residues 1–346) (P26038 1-346): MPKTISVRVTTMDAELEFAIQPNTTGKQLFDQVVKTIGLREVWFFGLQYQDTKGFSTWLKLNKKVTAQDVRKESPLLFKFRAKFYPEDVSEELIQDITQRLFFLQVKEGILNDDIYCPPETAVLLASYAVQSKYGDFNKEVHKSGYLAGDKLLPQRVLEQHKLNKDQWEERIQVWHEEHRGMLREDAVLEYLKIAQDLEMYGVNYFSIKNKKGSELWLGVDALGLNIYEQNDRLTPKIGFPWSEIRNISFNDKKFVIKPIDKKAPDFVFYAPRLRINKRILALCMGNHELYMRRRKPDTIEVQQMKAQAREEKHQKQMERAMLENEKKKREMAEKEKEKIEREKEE
Sequence of FERM domain of human moesin (residues 1–346) (human) (P26038 1-346): as above
Sequence of moesin N-terminal fragment 1-296 (P26038 1-296): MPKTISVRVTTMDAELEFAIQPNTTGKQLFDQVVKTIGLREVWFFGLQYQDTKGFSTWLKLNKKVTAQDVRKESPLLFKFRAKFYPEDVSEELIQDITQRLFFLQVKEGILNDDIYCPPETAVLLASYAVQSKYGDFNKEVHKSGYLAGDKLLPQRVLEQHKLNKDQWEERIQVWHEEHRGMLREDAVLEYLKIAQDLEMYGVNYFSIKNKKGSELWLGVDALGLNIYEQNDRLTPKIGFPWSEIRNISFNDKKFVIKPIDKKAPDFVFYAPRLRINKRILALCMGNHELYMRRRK

Kd [1]: 196 nM
Substance: ARR18, cytoplasmic domain peptide of human L-selectin (residues Ala317–Tyr334)

Kd [2]: 133 nM
Kd [3]: 74 nM
Kd [4]: 67 nM
Kd [5]: 70 nM
Kd [6]: 96 nM
Kd [7]: 214 nM
Kd [8]: 302 nM
Substance: FERM domain of human moesin (residues 1–346) (from UniProt P26038 1-346) (domain or fragment)

Kd [9]: 800 nM
Substance: calmodulin (CaM), wild type (from UniProt P0DP23 1-149) (natural protein)

Substance: moesin N-terminal fragment 1-296 (from UniProt P26038)
Kd [10]: 40 nM
